Common to all, as to assay: SEC
A general note: SEC sorts molecules by how far they enter the pores of the column.

For test [1], the target named is Actinobacillus ureae class Id ribonucleotide reductase α subunit (Actinobacillus ureae).
Test [2] has the same target. This is another data set of the same source.
Test [3] concerns the target Flavobacterium johnsoniae class Id ribonucleotide reductase α subunit (Flavobacterium johnsoniae).

This passage reports stoichiometry N results from paper PMC6456427.

Read-outs that look alike come from different tables or passages of the source.

What is called stoichiometry N is the number of molecules, sites or subunits per partner or assembly. Consider “Actinobacillus ureae class Id ribonucleotide reductase α subunit (enzyme)”, for which the stoichiometry N in test [1] and in test [2] was 2 in each case. Regarding “Flavobacterium johnsoniae class Id ribonucleotide reductase α subunit (enzyme)”, the stoichiometry N in test [3] is 2.
